Numbering of substitutions follows the chain as printed.
B1: Lmo1 probe (dsDNA)
DNA 1: GTAATGAATTGATTTAATTAACAGGGGAGTCTGA
DNA 2: GTCAGACTCCCCTGTTAATTAAATCAATTCATTA
B2: Lmo1mut2 (dsDNA)
DNA 1: B1 DNA 1 with T9C, T10C
DNA 2: B1 DNA 2 with A26G, A27G
B3: Lmo1mut1 (dsDNA)
DNA 1: B1 DNA 1 with A16C, A17C
DNA 2: B1 DNA 2 with T19G, T20G
B4: Ebf3 probe (dsDNA)
DNA 1: GCGATTTTCCCGATTAATTAAAATATTAACGCA
DNA 2: GTGCGTTAATATTTTAATTAATCGGGAAAATCG
B5: Shox2 probe (dsDNA)
DNA 1: GCAAAATCCACGCTTAATTAAATTAATTAGGGA
DNA 2: GTCCCTAATTAATTTAATTAAGCGTGGATTTTG

Tests used:
GST-Arx (286-430) [1] = molecular target: T1, GST-Arx (286-430) (UniProt O35085 286-430); assay: EMSA
T1 sequence (O35085 286-430): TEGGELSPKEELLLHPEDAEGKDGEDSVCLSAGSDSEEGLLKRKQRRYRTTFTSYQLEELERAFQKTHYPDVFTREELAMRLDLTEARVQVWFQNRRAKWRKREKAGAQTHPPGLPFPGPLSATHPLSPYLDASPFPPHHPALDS

GST-Arx (286-430) [2] = molecular target: T1, GST-Arx (286-430); assay: competition
GST-Arx (286-430) [3] = molecular target: T1, GST-Arx (286-430); assay: EMSA; remark: listed apart in the source

Binder | binding result (GST-Arx (286-430) [1]) | binding result (GST-Arx (286-430) [2]) | further results
B1 | binds | – | –
B2 | – | binds | –
B3 | – | no binding | –
B4 | – | – | binding result (GST-Arx (286-430) [3]): binds
B5 | binds | – | –

Source: article PMC2581427
